From the PETadex activity labels (doi:10.1021/acsomega.4c04843)

B1: unnamed (protein)
chain: MMGYITAHDGTNLYVEDVGFGEPIVFLHGWPANNNMFEYQKNALVEAGYRYIGIDFRGYGKSDAPATGYDYETMASDVHMVVYGLGLKNFTLVGFSMGGAIAVRYAADYKEDGLNKLVLAGAAAPIFTQRADYPYGMTTDEVDALIDDTRADRPKMLEGFGEIFFEKEHSKPMQNWFHHLALVASSHGTIASAQALRDEDLRDALPKIDVETLIIHGVHDKICPFAFAEQMEQGISNARIERFEESGHGTVLDEREKFNDTLLQFVQ
B2: unnamed (protein)
chain: MFRFHIVSALLTLFIAVPSQAHDVGQREIKISGAEPGRNLEVSVWYPAAIDGKATLIGDNIIFKGAPAVIDATPEKGSFPLLVMSHGSGGRAQGMAWLATELVKAGIIVAAPNHPGTTSGDSTPQDTPKIWQRTGDLSAVIDTMTTDPAWSGIIDKNKISVLGFSLGGAAAMEIAGARANLEAYARYCDTYGKWDCAWYAGGIGYRDDKQIKVDKVDLRSVDKSRFEQSNLDRRIASAIMIDPGLAQAYDAQSLASISIPMSFINLGEVETIPTGVVADKLASITPQGTYVTVAGATHFSFLPECKKGAADRLKSAGEVDPICSDDARRPRADIHADITKLVLKALQSMPKT
B3: unnamed (protein)
chain: MSNPYQRGPNPTRSALTADGPFSVATYTVSRLSVSGFGGGVIYYPTGTSLTFGGIAMSPGYTADASSLAWLGRRLASHGFVVLVINTNSRFDGPDSRASQLSAALNYLRTSSPSAVRARLDANRLAVAGHSMGGGGTLRIAEQNPSLKAAVPLTPWHTDKTFNTSVPVLIVGAEADTVAPVSQHAIPFYQNLPSTTPKVYVELCNASHIAPNSNNAAISVYTISWMKLWVDNDTRYRQFLCNVNDPALCDFRTNNRHCQLEHHHHHH
B4: unnamed (protein)
chain: MFRFHIVSALLTLFIAVPSQAHDVGQREIKISGAEPGRNLEVSVWYPAAIDGKATLIGDNIIFKGAPAVIDATPEKGSFPLLVMSHGSGGRAQGMAWLATELVKAGIIVAAPNHPGTTSGDSTPQDTPKIWQRTGDLSAVIDTMTTDPAWSGIIDKNKISVLGFSMGGAAAMEIAGARANLEAYARYCDTYGKWDCAWYAGGIGYRDDKQIKVDKVDLRSVDKSRFEQSNLDRRIASAIMIDPGLAQAYDAQSLASISIPMSFINLGEVETIPTGVVADKLASITPQGTYVTVAGATHWSFLPECKKGAADRLKSAGEVDPICSDDARRPRADIHADITKLVLKALQSMPKT
B5: unnamed (protein)
chain: MFRFHIVSALLTLFIAVPSQAHDVGQREIKISGAEPGRNLEVSVWYPAAIDGKATLIGDNIIFKGAPAVIDATPEKGSFPLLVMSHGSGGRAQGMAWLATELVKAGIIVAAPNHPGTTSGDSTPQDTPKIWQRTGDLSAVIDTMTTDPAWSGIIDKNKISVLGFSMGGAAAMEIAGARANLEAYARYCDTYGKWDCAWYAGGIGYRDDKQIKVDKVDLRSVDKSRFEQSNLDRRIASAIMIDPGLAQAYDAQSLASISIPMSFINLGEVETIPTGVVADKLASITPQGTYVTVAGATHISFLPECKKGAADRLKSAGEVDPICSDDARRPRADIHADITKLVLKALQSMPKT
B6: unnamed (protein)
chain: MFRFHIVSALLTLFIAVPSQAHDVGQREIKISGAEPGRNLEVSVWYPAAIDGKATLIGDNIIFKGAPAVIDATPEKGSFPLLVMSHGSGGRAQGMAWLATELVKAGIIVAAPNHPGTTSGDSTPQDTPKIWQRTGDLSAVIDTMTTDPAWSGIIDKNKISVLGFSMGGAAAMEIAGARANLEAYARYCDTYGKWDCAWYAGGIGYRDDKQIKVDKVDLRSVDKSRFEQSNLDRRIASAIMIDPGLAQAYDAQSLASISIPMSFINLGEVETIPTGVVADKLASITPQGTYVTVDGATHFSFLPECKKGAADRLKSAGEVDPICSDDARRPRADIHADITKLVLKALQSMPKT

Tests used:
[1] = substrate: pNPB; experiment: Proxy for plastic degradation [p-nitrophenol (pNP) release]; conditions: pH 7.4
[2] = substrate: PET; experiment: Proxy for plastic degradation [Released monomer concentration (HPLC/LC-MS) (TPA)]; conditions: pH 8

Row | Protein | Proxy for plastic degradation ([1]; 37 °C) [U/mL] | Proxy for plastic degradation ([1]; 42 °C) [U/mL] | Proxy for plastic degradation [2] [mM/mg]
1 | B1 | 245 | 300 | 3.7
2 | B2 | 255 | 330 | 0.8
3 | B3 | – | – | 3
4 | B4 | – | – | 2.3
5 | B5 | – | – | 1.5
6 | B6 | – | – | 2.6
